Measured values from patent publication US20250270304A1 (PHENOMIC AI, published 2025).

Assays:
Experiment in all cases: ELISA, coated antigen, OD450; negative control antibody
Inhibin A = biological target: T1, Inhibin A (Homo sapiens (Human), UniProt P05111 233-366; P08476 311-426)
T1 sequence 1: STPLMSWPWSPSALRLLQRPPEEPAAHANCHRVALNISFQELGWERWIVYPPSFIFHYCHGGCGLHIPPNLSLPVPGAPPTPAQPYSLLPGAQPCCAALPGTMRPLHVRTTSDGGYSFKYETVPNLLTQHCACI
T1 sequence 2: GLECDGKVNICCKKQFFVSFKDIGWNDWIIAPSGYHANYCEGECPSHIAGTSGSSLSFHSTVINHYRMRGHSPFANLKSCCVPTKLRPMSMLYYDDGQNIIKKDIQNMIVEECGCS
Description: (§1) Antibodies were re-expressed in 40 mL cultures of Expi293 cells and purified using protein G magnetic sepharose beads (Cytiva, Marlborough, MA) to provide larger quantities for secondary screening. Secondary screening included dose responses in both functional assays described above (SMAD nuclear localization and fibroblast activations assays) as well as in binding assays to the same antigens listed in Table 3. Plates were coated with 25 μL of 3 μg/mL antigen in 384-well Maxisorp plates overnight at 4° C. with agitation. The next day, the samples in the plates were blocked with 70 μL blocking buffer (PBS+1% BSA+0.1% Tween-20) for 2 hours at room temperature. Plates were then washed three times with 100 μL of wash buffer (PBS+0.1% Tween-20). Primary antibodies in Expi293 expression medium were diluted 1:3 in blocking buffer, 25 μL added per well, and the plates were incubated for an hour at room temperature with agitation. Plates were then washed three times and 25 μL of secondary antibody (goat anti-Human IgG, HRP conjugated; Jackson Immunoresearch) diluted 1:5000 in blocking buffer was added for 30 minutes at room temperature. The wells in the plates were washed six times with wash buffer and TMB substrate was added followed by 1 M H3PO4.

Latent Activin A = biological target: T2, Latent Activin A (human, UniProt P08476 21-426, limits assumed)
T2 construct: also called INHBA latent
T2 sequence: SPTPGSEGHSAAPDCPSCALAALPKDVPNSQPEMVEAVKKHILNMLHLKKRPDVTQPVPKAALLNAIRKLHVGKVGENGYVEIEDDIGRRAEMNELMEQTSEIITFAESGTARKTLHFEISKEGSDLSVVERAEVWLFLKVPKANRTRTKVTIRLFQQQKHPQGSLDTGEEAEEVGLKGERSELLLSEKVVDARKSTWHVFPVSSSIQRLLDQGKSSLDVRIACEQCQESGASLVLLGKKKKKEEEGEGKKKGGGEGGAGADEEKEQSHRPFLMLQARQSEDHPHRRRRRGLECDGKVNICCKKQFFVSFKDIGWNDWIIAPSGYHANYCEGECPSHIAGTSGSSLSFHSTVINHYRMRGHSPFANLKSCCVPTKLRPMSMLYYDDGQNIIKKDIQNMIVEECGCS
Description: as §1

Activin B = biological target: T3, Activin B (Homo sapiens (Human), UniProt P09529 293-407)
T3 construct: also called Mature Activin B; mature Activin B
T3 sequence: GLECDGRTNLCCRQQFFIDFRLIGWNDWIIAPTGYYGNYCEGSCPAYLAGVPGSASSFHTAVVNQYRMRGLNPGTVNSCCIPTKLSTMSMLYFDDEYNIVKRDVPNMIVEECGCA
Description: as §1

Mature Activin A = biological target: T4, Mature Activin A (human, UniProt P08476 311-426)
T4 construct: also called active Activin A; INHBA mature
T4 sequence: T1 sequence 2
Description: as §1

Measured: binding result

B1: Control 3 (antibody, human IgG1, kappa, V domains shown)
VH: QVTLRESGPALVKPTQTLTLTCTFSGFSLSTSGMSVGWIRQPPGKALEWLADIWWDDKKDYNPSLKSRLTISKDTSKNQVVLKVTNMDPADTATYYCARSMITNWYFDVWGAGTTVTVSS
VL: DIQMTQSPSTLSASVGDRVTITCKCQLSVGYMHWYQQKPGKAPKLLIYDTSKLASGVPSRFSGSGSGTEFTLTISSLQPDDFATYYCFQGSGYPFTFGGGTKLEIKR
notes: Negative control antibody; also called palivizumab
no binding: Inhibin A | Latent Activin A | Activin B | Mature Activin A
